# Where “and” joins values, the source holds several entries; their conditions need not be identical. Equal values may be shown once.
# T1: α1AAR (Homo sapiens, UniProt P35348, N13Q/N22Q/N7Q)
# T1 construct: C-terminus truncated human α1AAR (residues 1–370, full length: 466); hemagglutinin signal peptide (N); 8×His (C); made in house; host or cells: Sf9 insect cells (baculovirus)
# T1 sequence (P35348 1-370 N7Q/N13Q/N22Q): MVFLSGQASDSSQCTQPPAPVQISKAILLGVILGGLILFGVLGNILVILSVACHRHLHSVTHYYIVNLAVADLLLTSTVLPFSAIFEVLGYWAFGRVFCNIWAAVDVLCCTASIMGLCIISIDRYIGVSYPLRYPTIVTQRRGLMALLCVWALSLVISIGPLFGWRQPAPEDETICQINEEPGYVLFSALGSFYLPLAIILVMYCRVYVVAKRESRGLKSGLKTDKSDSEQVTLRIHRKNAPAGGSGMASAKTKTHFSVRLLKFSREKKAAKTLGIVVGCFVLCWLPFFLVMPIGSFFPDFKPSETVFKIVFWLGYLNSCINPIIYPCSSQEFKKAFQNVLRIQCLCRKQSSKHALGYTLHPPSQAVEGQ
# B1: Nb29 (purified nanobody) (VHH)
# VHH: QVQLQESGGGLVQAGGSLRLSCAASGNISAHWKMGWYRQAPGKEREFVAGIGYANTNYADSVKGRFTISRDNAKNTVYLQMNSLKPEDTAVYYCAAYSYYRDHSYWGQGTQVTVSS
# notes: source: E. coli BL21(DE3), periplasmic (pET26b), purified (Ni-NTA, size-exclusion chromatography)
# B2: Nb29: synthetic nanobody (single domain antibody) that binds the extracellular vestibule of α1AAR, preferentially oxymetazoline-bound (antibody, V domains shown)
# VH: B1 VHH
# B3: Nb6: nanobody that engages the ICL3 of the inactive-state κ-opioid receptor (antibody, V domains shown)
# VH: QVQLQESGGGLVQAGESLRLSCAASGTIFRLYDMGWYRRVSGNQRELVASITSGGSTKYGDSVKGRFTISRDNAKNTVYLQMSSLKPEDTAVYYCNAEYRTGIWEELLDGWGQGTQVTVSS
# Columns and labels:
# α1AAR-kOR = biological target: T2, α1AAR-kOR (Homo sapiens, UniProt P35348, DEL205-275/INS204TLMILRLKSVRLLSGSREKDRNLRRITRLVL/M115W/N13Q/N22Q/N7Q/S113R); assay: [3H]prazosin radioligand binding, Sf9 membrane; settings: for [3H]prazosin binding: listed as Tam
# T2 construct: C-terminus truncated human α1AAR (residues 1–370, full length: 466); hemagglutinin signal peptide (N); FLAG (N); 8×His (C); made in house; host or cells: Sf9 insect cells (membranes)
# [1] = biological target: T3, C-terminus truncated human α1AAR (residues 1-370; N7Q, N13Q, N22Q) (Homo sapiens, UniProt P35348, N7Q | N13Q | N22Q); assay: radioligand binding; [3H]prazosin competition binding with Nb29 as competitor, α1AAR in Sf9 membranes; 20 mM Tris-HCl pH 7.5, 100 mM NaCl; 1 h at room temperature; settings: one partner purified
# T3 construct: α1A-adrenergic receptor, human, residues 1-370 (full length: 466); also called α1A-adrenergic receptor; source: Sf9 insect cells (baculovirus); not shown: FLAG, N-terminal, kept
# [2] = biological target: T3, C-terminus truncated human α1AAR …; assay: radioligand binding; [3H]prazosin competition binding with Nb29 as competitor, purified α1AAR bound to M1-Flag affinity resin; 20 mM HEPES pH 7.5, 100 mM NaCl, 0.01% MNG, 0.001% CHS, 2 mM CaCl2; 1 h at room temperature; settings: both partners purified
# α1AAR = biological target: T1, α1AAR; assay: On-yeast titration of Nb29 for α1AAR, flow cytometry; type: binding
# Procedure: Yeast cells were analyzed by Accuri C6 and the ratio of double-positive yeast cells among anti-HA positive cells was calculated.
# [3] = 1 h, read-out: [3H]prazosin binding
# T2 sequence (P35348 with tags, fused parts or gaps with the stated changes limits assumed): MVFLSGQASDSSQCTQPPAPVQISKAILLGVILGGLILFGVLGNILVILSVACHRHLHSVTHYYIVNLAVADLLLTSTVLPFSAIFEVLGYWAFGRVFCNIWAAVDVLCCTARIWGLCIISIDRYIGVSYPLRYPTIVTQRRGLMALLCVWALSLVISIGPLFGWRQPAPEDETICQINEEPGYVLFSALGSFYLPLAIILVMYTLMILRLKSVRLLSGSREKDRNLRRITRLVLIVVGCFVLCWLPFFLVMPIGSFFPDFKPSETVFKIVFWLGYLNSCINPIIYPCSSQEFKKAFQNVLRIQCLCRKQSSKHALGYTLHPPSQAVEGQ
molecule,measurement,setting,value
"Cc1cc(C(C)(C)C)c(O)c(C)c1CC1=NCCN1 [Oxymetazoline, oxymetazoline]",remaining activity at 0.001 µM,α1AAR-kOR; [3],89.3%
same,remaining activity at 0.01 µM,α1AAR-kOR; [3],83.5%
same,remaining activity at 1 µM,α1AAR-kOR; [3],13.3%
"CCOc1ccccc1OCCN[C@H](C)Cc1ccc(OC)c(S(N)(=O)=O)c1 [Tamsulosin, tamsulosin]",[3H]prazosin binding,"α1AAR-kOR; Tam Log[M] -4, + 5 μM Nb6",0.3% and 1.4% and 0.5%
same,[3H]prazosin binding,α1AAR-kOR; Tam Log[M] -4,1.611% and 3.516% and 2.93%
same,[3H]prazosin binding,"α1AAR-kOR; Tam Log[M] -5, + 5 μM Nb6",2.5% and 2.1% and 1.4%
same,[3H]prazosin binding,α1AAR-kOR; Tam Log[M] -5,3.223% and 3.809% and 3.369%
same,[3H]prazosin binding,"α1AAR-kOR; Tam Log[M] -6, + 5 μM Nb6",3.3% and 4.3% and 2.7%
same,[3H]prazosin binding,α1AAR-kOR; Tam Log[M] -6,4.541% and 3.809% and 4.395%
same,[3H]prazosin binding,"α1AAR-kOR; Tam Log[M] -7, + 5 μM Nb6",48.154% and 49.4541% and 47.454%
same,[3H]prazosin binding,α1AAR-kOR; Tam Log[M] -7,39.4775% and 27.2705% and 36.2061%
same,[3H]prazosin binding,"α1AAR-kOR; Tam Log[M] -8, + 5 μM Nb6",86.9072% and 94.5245% and 104.442%
same,[3H]prazosin binding,α1AAR-kOR; Tam Log[M] -8,82.3975% and 81.5186% and 80.0537%
same,[3H]prazosin binding,"α1AAR-kOR; Tam Log[M] -9, + 5 μM Nb6",108.742% and 93.5245% and 98.1248%
same,[3H]prazosin binding,α1AAR-kOR; Tam Log[M] -9,91.626% and 91.1865%
same,[3H]prazosin binding,"α1AAR-kOR; Tam Log[M] -10, + 5 μM Nb6",97.6581% and 106.126% and 95.8247%
same,[3H]prazosin binding,α1AAR-kOR; Tam Log[M] -10,84.8877% and 109.009% and 95.459%
same,[3H]prazosin binding,"α1AAR-kOR; Tam Log[M] -11, + 5 μM Nb6",98.7416% and 100.042% and 78.5899%
same,[3H]prazosin binding,α1AAR-kOR; Tam Log[M] -11,106.152% and 96.4844% and 97.3633%
B1,Ki,[1],41 µM
same,Ki,[2],6.4 µM
B2,Nb29-expressing yeast cells bound to α1AAR,"α1AAR; 500 μM Noradrenaline, α1AAR 4 nM",4.281% and 5.07% and 1.08%
same,Nb29-expressing yeast cells bound to α1AAR,"α1AAR; 500 μM Noradrenaline, α1AAR 16 nM",4.4164% and 6.158% and 1.447%
same,Nb29-expressing yeast cells bound to α1AAR,"α1AAR; 500 μM Noradrenaline, α1AAR 64 nM",6.534% and 6.061% and 1.603%
same,Nb29-expressing yeast cells bound to α1AAR,"α1AAR; 500 μM Oxymetazoline, α1AAR 64 nM",56.0554% and 29.8113% and 58.3201%
same,Nb29-expressing yeast cells bound to α1AAR,"α1AAR; 500 μM Oxymetazoline, α1AAR 256 nM",56.0831% and 53.0792% and 88.1579%
same,Nb29-expressing yeast cells bound to α1AAR,"α1AAR; 500 μM Phentolamine, α1AAR 4 nM",4.281% and 2.134% and 0.9772%
same,Nb29-expressing yeast cells bound to α1AAR,"α1AAR; 500 μM Phentolamine, α1AAR 16 nM",4.4164% and 5.525% and 0.626%
same,Nb29-expressing yeast cells bound to α1AAR,"α1AAR; 500 μM Phentolamine, α1AAR 64 nM",6.534% and 6.745% and 1.138%
same,Nb29-expressing yeast cells bound to α1AAR,"α1AAR; 500 μM Tam, α1AAR 4 nM",1.7094% and 4.412% and 4.11%
same,Nb29-expressing yeast cells bound to α1AAR,"α1AAR; 500 μM Tam, α1AAR 16 nM",2.954% and 4.451% and 4.373%
same,Nb29-expressing yeast cells bound to α1AAR,"α1AAR; 500 μM Tam, α1AAR 64 nM",5.7377% and 5.491% and 6.25%
same,Nb29-expressing yeast cells bound to α1AAR,"α1AAR; 500 μM Tam, α1AAR 256 nM",3.361% and 11.8841% and 12.7329%
same,Bmax,α1AAR; Apo α1AAR,35.8 ± 25.7%
same,Kd,α1AAR; Apo α1AAR,0.209 ± 0.288 µM
same,Nb29-expressing yeast cells bound to α1AAR,"α1AAR; Apo, α1AAR 4 nM",4.848% and 6.304% and 2.077%
same,Nb29-expressing yeast cells bound to α1AAR,"α1AAR; Apo, α1AAR 16 nM",4.142% and 4.886% and 1.136%
same,Bmax,α1AAR; α1AAR + 500 μM noradrenaline,10.9 ± 3.4%
same,Bmax,α1AAR; α1AAR + 500 μM oxymetazoline,75.5 ± 13.8%
same,Bmax,α1AAR; α1AAR + 500 μM phentolamine,24.8 ± 4.0%
same,Bmax,α1AAR; α1AAR + 500 μM tamsulosin,8.90 ± 1.8%
B3,effect on [3H]prazosin binding,α1AAR-kOR,enhancement
same,Normalized [3H]prazosin-binding,α1AAR-kOR; with 5 μM Nb6,182.818% and 184.467% and 175.395%

# From PMC10282093, “Structural basis of α1A-adrenergic receptor activation and recognition by an extracellular nanobody” (Nature Communications, 2023)
